EP1986009A1

Molecular target: Recombinant human RAGE/Fc chimera (R&D Systems cat. No. 1145-RG) (human)
Experiment: SPR (Biacore), 200 nM protein over immobilized RAGE/Fc, Req or late association response

Chain of Recombinant human RAGE/Fc chimera (R&D Systems cat. No. 1145-RG) (human) (Q15109 23-344, change not shown, form in doubt): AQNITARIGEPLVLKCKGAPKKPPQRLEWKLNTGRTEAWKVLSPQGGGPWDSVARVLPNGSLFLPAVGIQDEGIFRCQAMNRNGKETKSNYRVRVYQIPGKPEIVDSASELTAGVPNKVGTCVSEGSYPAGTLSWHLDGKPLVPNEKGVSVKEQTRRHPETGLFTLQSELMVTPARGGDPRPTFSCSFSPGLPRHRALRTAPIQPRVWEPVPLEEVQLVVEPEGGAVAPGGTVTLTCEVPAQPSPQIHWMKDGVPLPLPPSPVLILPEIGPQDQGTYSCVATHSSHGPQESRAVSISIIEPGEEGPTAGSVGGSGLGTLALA

- fold higher binding than the next group of RAGE binders (AnxII, S100A12, and S100A8/9): > 10 fold
Substance: Recombinant S100A9, expressed as the full-length sequence of native protein in E. coli (ligand)
